Experimental data reported in patent publication US20250326842A1 (BEIGENE SWITZERLAND, published 2025).
Like-named read-outs stand apart in the source and are kept apart here.

T1: Cyno PVRIG expressed on HEK293 cells (cynomolgus monkey)
T1 construct: also called native Cyno PVRIG
T1 chain: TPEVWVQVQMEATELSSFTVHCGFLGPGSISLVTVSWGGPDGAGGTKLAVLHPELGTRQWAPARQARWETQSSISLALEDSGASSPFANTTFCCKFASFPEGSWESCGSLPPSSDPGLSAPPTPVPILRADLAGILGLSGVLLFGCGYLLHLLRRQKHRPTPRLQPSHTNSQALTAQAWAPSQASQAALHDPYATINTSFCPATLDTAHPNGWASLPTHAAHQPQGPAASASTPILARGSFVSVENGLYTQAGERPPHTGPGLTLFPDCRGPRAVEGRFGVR

T2: human PVRIG recombinant protein (human, UniProt Q6DKI7 41-171)
T2 construct: also called human PVRIG protein; recombinant human antigen PVRIG
T2 sequence: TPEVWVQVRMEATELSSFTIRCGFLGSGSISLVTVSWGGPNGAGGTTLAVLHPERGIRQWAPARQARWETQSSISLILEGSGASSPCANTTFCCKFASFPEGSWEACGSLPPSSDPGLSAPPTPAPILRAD

T3: human PVRIG expressed on cells (human, UniProt Q6DKI7 41-326)
T3 construct: Jurkat cells engineered to express human PVRIG; also called hPVRIG-Jurkat; native human PVRIG
T3 sequence: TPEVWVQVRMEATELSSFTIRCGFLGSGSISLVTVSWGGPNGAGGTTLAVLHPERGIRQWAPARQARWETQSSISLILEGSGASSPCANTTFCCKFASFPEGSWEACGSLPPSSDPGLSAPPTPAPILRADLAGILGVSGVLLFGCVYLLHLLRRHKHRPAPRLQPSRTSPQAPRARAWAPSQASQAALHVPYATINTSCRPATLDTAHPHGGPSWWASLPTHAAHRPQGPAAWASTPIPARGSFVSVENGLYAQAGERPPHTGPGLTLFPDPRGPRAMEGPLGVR

T4: hPVRIG-ECD-his (human, UniProt Q6DKI7 41-171)
T4 construct: Acrobiosystems PVG-H52H4; also called hPVRIG-His; human PVRIG-His; not shown: His tag
T4 sequence: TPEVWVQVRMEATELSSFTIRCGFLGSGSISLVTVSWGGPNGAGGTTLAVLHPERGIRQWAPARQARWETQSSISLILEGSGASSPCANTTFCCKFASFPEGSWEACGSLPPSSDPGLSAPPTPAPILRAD


Experiments:
[1] = target: T1, Cyno PVRIG expressed on HEK293 cells; experiment: flow cytometry on HEK293 cells expressing cyno PVRIG, anti-hFc-647 detection [panel B]
Experimental: (§1) To evaluate the binding activity of anti-PVRIG antibodies to native Cyno PVRIG on living cells. HEK293 cells were engineered to express Cyno PVRIG. HEK293 cells transfected with Cyno PVRIG were seeded in 96 well plates and were incubated with a serial dilution of anti-PVRIG antibodies. […] EC50 values for dose dependent binding to Cyno native PVRIG were determined by fitting the dose response data to the four-parameter logistic model with GraphPad Prism™.

[2] = target: T2, human PVRIG recombinant protein; experiment: SPR, antibody captured via anti-human Fc, human PVRIG analyte
From the text: For affinity determination, anti-PVRIG antibodies were captured by anti-human Fc antibodies, and used in the affinity assay based on surface plasmon resonance (SPR) technology.

[3] = target: T3, human PVRIG expressed on cells; experiment: flow cytometry on Jurkat cells expressing human PVRIG, anti-hFc-647 detection [panel B]
Experimental: as §1, with “native” for “native Cyno”, “cells, Jurkat” for “cells. HEK293”, “human” for “Cyno”, “Jurkat” for “HEK293”, “expressing” for “transfected with Cyno”, “serially diluted” for “a serial dilution of”

[4] = target: T4, hPVRIG-ECD-his; experiment: blocking ELISA: hPVRIG-His coated, antibody mixed with PVRL2-biotin at 1 ug/mL; % inhibition of PVRL2 binding
[5] = target: T2, human PVRIG recombinant protein; experiment: SPR, antibody captured via anti-human Fc, human PVRIG analyte; remark: listed apart in the source
From the text: For affinity determination, antibodies were captured by anti-human Fe antibodies, and used in the affinity assay based on surface plasmon resonance (SPR) technology. […] Rmax represents the maximal feasible SPR signal generated by an interaction between a ligand-analyte pair and is represented in response units (RU).

[6] = target: T3, human PVRIG expressed on cells; experiment: flow cytometry on Jurkat cells expressing human PVRIG, anti-hFc-AF647 detection
Experimental: (§2) To evaluate the binding activity of anti-PVRIG antibodies to native PVRIG on living cells, Jurkat cells were engineered to express human PVRIG. Jurkat cells expressing human PVRIG were seeded in 96 well plates, and were incubated with serially diluted anti-PVRIG antibodies. […] EC50 values for dose dependent binding to human native PVRIG were determined by fitting the dose response data to the four-parameter logistic model with GraphPad Prism™.

[7] = target: T3, human PVRIG expressed on cells; experiment: as above; remark: listed apart in the source
Experimental: as §2, with “to native human PVRIG on” for “to native PVRIG on”

[8] = target: T2, human PVRIG recombinant protein; experiment: SPR, antibody captured via anti-human Fc, human PVRIG analyte; remark: listed apart in the source
From the text: For affinity determination, antibodies were captured by anti-human Fc antibodies, and used in the affinity determination based on surface plasmon resonance (SPR) technology.

[9] = target: T1, Cyno PVRIG expressed on HEK293 cells; experiment: flow cytometry on 293T cells expressing cyno PVRIG, anti-hFc-AF647 detection
[10] = target: T4, hPVRIG-ECD-his; experiment: blocking ELISA: hPVRIG-His coated, antibody mixed with PVRL2-biotin at 1 ug/mL; % inhibition of PVRL2 binding; remark: listed apart in the source
[11] = target: T2, human PVRIG recombinant protein; experiment: SPR, antibody captured via anti-human Fc, human PVRIG analyte; remark: listed apart in the source
Experimental: Chimeric anti-PVRIG antibodies were generated in human IgG1 format and characterized for binding kinetics by surface plasmon resonance (SPR) assays using BIAcore™ T-200 (GE Life Sciences). […] Then a serial dilution of human or Cyno PVRIG protein was flowed over the chip surface and changes in surface plasmon resonance signals were analyzed to calculate the association rates (kₒₙ) and dissociation rates (koff) by using the one-to-one Langmuir binding model (BIA Evaluation Software, GE Life Sciences). The equilibrium dissociation constant (KD) was calculated as the ratio koff/kₒₙ.

[12] = target: T3, human PVRIG expressed on cells; experiment: FACS on human PVRIG-expressing cells
[13] = target: T4, hPVRIG-ECD-his; experiment: competition ELISA, antibody against PVRL2 on coated human PVRIG
[14] = target: T2, human PVRIG recombinant protein; experiment: ELISA, chimeric antibody on recombinant human PVRIG

Binder	IC50 (read off the curve) [4] [µg/mL]	Kd [5] [nM]	koff [5] [s⁻¹]	kon [5] [M⁻¹ s⁻¹]	EC50 (read off the curve) [6] [ng/mL]	EC50 (read off the curve) [7] [µg/mL]	Kd [8] [nM]	koff [8] [s⁻¹]	kon [8] [M⁻¹ s⁻¹]	EC50 (read off the curve) [9] [ng/mL]	IC50 (read off the curve) [10] [µg/mL]	also measured
BGA383 (antibody, V domains shown, Humanized BGA38) VH: EVQLVQSGAEVKKPGASVKVSCKASGYTFTDYWIYWVRQAPGQGLEWMGTIDTSDAKTSYNQKFRGRVTMTRDTSTSTVYMELSSLRSEDTAVYYCARDFIITVNYPVVDYWGQGTLVTVSS VL: QIVLTQSPATLSLSPGERATLSCSAGSSVNYMHWFQQKPGQAPRLLIYSTSNLASGVPARFSGSGSGTDYTLTISSLEPEDFAVYYCQQRSSLPFTFGQGTKLEIK												EC50 (read off the curve) [1]: ~0.04 µg/mL; Kd [2]: 0.0998 nM; koff [2]: 0.000649 s⁻¹; kon [2]: 6.51e+06 M⁻¹ s⁻¹; EC50 (read off the curve) [3]: ~0.03 µg/mL
BGA121 (antibody, V domains shown, Humanized BGA12) VH: QVQLVQSGAEVKKPGASVKVSCKASGYTFTDYAMHWVRQAPGQSLEWMGVVLTHNDNTNYNQKFKARVTMTVDTSASTAYMELSSLRSEDTAVYYCAREVYYDFDDGNYFPMDYWGQGTLVTVSS VL: not shown	~0.6	0.0524	0.00122	2.33e+07	~7							
BGA502 (antibody, V domains shown, Humanized BGA50) VH: QVQLVQSGAEVKKPGASVKVSCKASGYSFTGYFLNWVRQAPGQGLEWIGRISPYQGDTFYNQKFKGRVTMTTDKSTSTAYMELRSLRSDDTAVYYCGRSGSFTLFYALDYWGQGTLVTVSS VL: DIVMTQSPSSLAVSLGERATINCKSSQSLFHSGNQKNYLAWYQQKPGQSPKLLIYWASTRESGVPDRFSGSGSGTDFTLTISSLQAEDVAVYYCQQYYSYPITFGQGTKLEIK						~0.01	0.103	0.000486	4.71e+06	~7	~1	
BGA12 (antibody, V domains shown) VH: QVQLQQSGPEVVRPGVSVKISCKGSGYTFTDYAMHWVKQSHGKSLEWIGVVLTHNDNTNYNQKFKAKATMTVDRSSSTAYMELARLTSEDSAIYYCAREVYYDFDDGNYFPMDYWGQGTSVTVSS VL: DIVMSQSPSSLAVSVGEKVTMSCKSSQSLLYSDNQKNYLAWYQQKPGQSPKLLIYWASTRESGVPVRFTGSGSGTDFTLTISSVKAEDLAVYYCQQYYSYHTFGGGTKLEIK	~0.6	0.0684	0.00157	2.29e+07	~7							Kd [11]: 0.0684 nM; koff [11]: 0.00157 s⁻¹; kon [11]: 2.29e+07 M⁻¹ s⁻¹; EC50 [12]: 0.05 nM; binding Emax (MFI) [12]: 1180 MFI; IC50 [13]: 0.15 nM; PVRIG/PVRL2 blocking Emax (% Inhibition) [13]: 91.9%; EC50 [14]: 0.126 nM
BGA50 (antibody, V domains shown, also called BGA50-WT) VH: EVQLQQSGPEPVKPGASVKISCKASGYSFTGYFLNWVKQSHGKSLEWIGRISPYNGDTFYNQKFKGKATLTVDKSSSTAHMELLSLTSEDSAVYYCGRSGSFTLFYAMDYWGQGTSVTVSS VL: DIVMSQSPSSLAVSVGENITMTCKSSQSLFHSGNQKNYLAWYQQKPGQSPKLLIYWASTRESGVPDRFTGSGSETDFTLTISSVKAEDLAVYFCQQYYSYPITFGAGTKLELK						~0.03	0.0907	0.000519	5.72e+06	~20	~1	Kd [11]: 0.147 nM; koff [11]: 0.000652 s⁻¹; kon [11]: 4.45e+06 M⁻¹ s⁻¹; EC50 [12]: 0.273 nM; binding Emax (MFI) [12]: 2610 MFI; IC50 [13]: 1.09 nM; PVRIG/PVRL2 blocking Emax (% Inhibition) [13]: 95.3%; EC50 [14]: 0.105 nM

Now from value to binder, other results behind:

IC50 (read off the curve) [4] [µg/mL]	Kd [5] [nM]	koff [5] [s⁻¹]	kon [5] [M⁻¹ s⁻¹]	EC50 (read off the curve) [6] [ng/mL]	EC50 (read off the curve) [7] [µg/mL]	Kd [8] [nM]	koff [8] [s⁻¹]	kon [8] [M⁻¹ s⁻¹]	EC50 (read off the curve) [9] [ng/mL]	IC50 (read off the curve) [10] [µg/mL]	Binder	also measured
~0.6	0.0488	0.00199	4.09e+07	~7							BGA122 (antibody, V domains shown, Humanized BGA12; also called BGA122-WT) VH: QVQLVQSGAEVKKPGASVKVSCKASGYTFTDYAMHWVRQAPGQSLEWMGVVLTHNDNTNYNQKFKARVTMTVDTSASTAYMELSSLRSEDTAVYYCAREVYYDFDDGNYFPMDYWGQGTLVTVSS VL: not shown	
					~0.01	0.12	0.000438	3.66e+06	~7	~0.8	BGA503 (antibody, V domains shown, Humanized BGA50) VH: QVQLVQSGAEVKKPGASVKVSCKASGYSFTGYFLNWVRQAPGQGLEWIGRISPYQGDTFYNQKFKGRVTMTVDKSTSTAYMELRSLRSDDTAVYYCGRSGSFTLFYALDYWGQGTLVTVSS VL: DIVMTQSPSSLAVSLGERATINCKSSQSLFHSGNQKNYLAWYQQKPGQSPKLLIYWASTRESGVPDRFSGSGSGTDFTLTISSLQAEDVAVYYCQQYYSYPITFGQGTKLEIK	
					~0.01	0.136	0.000436	3.21e+06	~10	~1	BGA501 (antibody, V domains shown, Humanized BGA50; also called BGA501-WT) VH: QVQLVQSGAEVKKPGASVKVSCKASGYSFTGYFLNWVRQAPGQGLEWIGRISPYQGDTFYNQKFKGRVTMTTDKSTSTAYMELRSLRSDDTAVYYCGRSGSFTLFYAIDYWGQGTLVTVSS VL: DIVMTQSPSSLAVSLGERATINCKSSQSLFHSGNQKNYLAWYQQKPGQSPKLLIYWASTRESGVPDRFSGSGSGTDFTLTISSLQAEDVAVYYCQQYYSYPITFGQGTKLEIK	
